From patent publication US20100028924A1, “Method Of Diagnosing Pon1-Hdl Associated Lipid Disorders” (Rappaport Family Institute Research in the Medical Sciences, priority 2006, published 2010)

Assays:
[1] = Dihydrocoumarin hydrolysis by PON1 isozymes (Vmax); assay type: biochemical; settings: Vmax^Q=1.125*Vmax^R
Experimental: Determination of a total PON1 level may be effected by any method known in the art. For example, the level of total PON1 may be determined using an antibody specific for PON1. Preferably, the level of total PON1 is determined by measuring the level of total enzymatically active PON1. Thus for example, the level of total PON1 may be measured using an ELISA assay. Such assays are known in the art—see for example Blatter et al, Biochem J 304 (Pt 2): 549-554. An exemplary method for measuring total PON1's serum concentration comprises assaying PON1 dihydrocoumarin hydrolysis as described in Example 3.

[2] = tested on: apoA-I rHDL; experiment: Inactivation kinetics of human PON1 192 isozymes on rHDL-apoA-I (NTA/β-mercaptoethanol); assay type: biochemical; settings: 50-fold molar excess rHDL-apoA-I; NTA and β-mercaptoethanol each 5 mM, 25° C.
Experimental: FIGS. 5A-B are graphs showing the inactivation and catalytic stimulation of the human PON1 192R/Q isozymes. FIG. 5A is a line graph showing the inactivation kinetics of human PON1-192R and -192Q in the presence of rHDL-apoA-I. The delipidated isozymes (0.2 μM) were incubated with a 50-fold molar excess of rHDL-apoA-I in activity buffer, and subjected to inactivation by NTA and β-mercaptoethanol (each at 5 mM) at 25° C. Residual activity determined as above (FIG. 1) and data were fitted to a double-exponential function. FIG. 5B is a bar graph showing stimulation of the enzymatic activity of human PON1-192R and -192Q by rHDL-apoA-I. The delipidated isozymes were incubated with a 50-fold molar excess of rHDL-apoA-I, and enzymatic activity was determined with various substrates (at 1 mM for all the substrates, except TBBL at 0.25 mM). The activity is presented in relation to the initial activity of the delipidated enzymes (percentage of stimulation). Each bar represents the mean and S.D. of at least two independent measurements;
Human PON1-192R and Q isozymes purified from pooled blood samples [Gan, K. N., et al., Drug Metab Dispos, 1991. 19(1): p. 100-6] were kindly provided by Dr. Dragomir Draganov (University of Michigan, Ann Arbour), and stored in presence of 0.1% tergitol and 20% glycerol. Prior to assay, these samples were briefly delipidated [Gaidukov, L. and D. S. Tawfik, Biochemistry, 2005. 44(35): p. 11843-54] and dialyzed against activity buffer to remove the tergitol and glycerol that interfere with HDL binding. Dialyzed samples (0.2 μM) were incubated with rHDL (10 μM). Stability assays were performed at 25° C., in activity buffer supplemented with nitrilotriacetic acid (NTA) and β-mercaptoethanol, both at 5 mM. Data analysis was performed as described above for rePON1s. Stimulation of enzymatic activities was measured with various substrates at 1 mM concentration, except for TBBL (0.25 mM).
The progress of inactivation of human PON1 isozymes anchored on rHDL-apoA-I is illustrated in FIG. 5A. Inactivation of both isozymes followed a two-phase kinetics with similar inactivation rates, but different partitioning between the HDL-bound and unbound phases, as detailed in Table 4 hereinbelow. Amplitudes (A) and kinetic rates of inactivation (k^inactiv) were derived by fitting the data to a double-exponential curve.

B1: human PON1-192Q: human PON1 192Q isozyme purified from pooled blood samples (protein)
chain: AKLIALTLLGMGLALFRNHQSSYQTRLNALREVQPVELPNCNLVKGIETGSEDLEILPNGLAFISSGLKYPGIKSFNPNSPGKILLMDLNEEDPTVLELGITGSKFDVSSFNPHGISTFTDEDNAMYLLVVNHPDAKSTVELFKFQEEEKSLLHLKTIRHKLLPNLNDIVAVGPEHFYGTNDHYFLDPYLQSWEMYLGLAWSYVVYYSPSEVRVVAEGFDFANGINISPDGKYVYIAELLAHKIHVYEKHANWTLTPLKSLDFNTLVDNISVDPETGDLWVGCHPNGMKIFFYDSENPPASEVLRIQNILTEEPKVTQVYAENGTVLQGSTVASVYKGKLLIGTVFHKALYCEL
With B1 the “ratio of Vmax of PON1-192Q and -192R isozymes toward dihydrocoumarin” value [1] was 1.125, the “A2(%) (slow phase, HDL-bound fraction)” value [2] was 72% and the “k1^inactiv (first, fast phase)” value [2] was 0.6 h⁻¹. The “k2^inactiv (second, slow phase)” value [2] was 0.01 h⁻¹.
